Measured values reported in IntAct's records for PubMed 31515488.

B1: Myotubularin-related protein 9 (Homo sapiens), Q96QG7 (parent)
chain: MEFAELIKTPRVDNVVLHRPFYPAVEGTLCLTGHHLILSSRQDNTEELWLLHSNIDAIDKRFVGSLGTIIIKCKDFRIIQLDIPGMEECLNIASSIEALSTLDSITLMYPFFYRPMFEVIEDGWHSFLPEQEFELYSSATSEWRLSYVNKEFAVCPSYPPIVTVPKSIDDEALRKVATFRHGGRFPVLSYYHKKNGMVIMRSGQPLTGTNGRRCKEDEKLINATLRAGKRGYIIDTRSLNVAQQTRAKGGGFEQEAHYPQWRRIHKSIERYHILQESLIKLVEACNDQTHNMDRWLSKLEASNWLTHIKEILTTACLAAQCIDREGASILIHGTEGTDSTLQVTSLAQIILEPRSRTIRGFEALIEREWLQAGHPFQQRCAQSAYCNTKQKWEAPVFLLFLDCVWQILRQFPCSFEFNENFLIMLFEHAYASQFGTFLGNNESERCKLKLQQKTMSLWSWVNQPSELSKFTNPLFEANNLVIWPSVAPQSLPLWEGIFLRWNRSSKYLDEAYEEMVNIIEYNKELQAKVNILRRQLAELETEDGMQESP
B2: WASH complex subunit 3 (Homo sapiens), Q9Y3C0 (parent)
chain: MDEDGLPLMGSGIDLTKVPAIQQKRTVAFLNQFVVHTVQFLNRFSTVCEEKLADLSLRIQQIETTLNILDAKLSSIPGLDDVTVEVSPLNVTSVTNGAHPEATSEQPQQNSTQDSGLQESEVSAENILTVAKDPRYARYLKMVQVGVPVMAIRNKMISEGLDPDLLERPDAPVPDGESEKTVEESSDSESSFSD

Variants of: B1
Details: with lnx1_human LNX1, Q8TBB1
lnx1_human LNX1, Q8TBB1, sequence (Q8TBB1 whole entry): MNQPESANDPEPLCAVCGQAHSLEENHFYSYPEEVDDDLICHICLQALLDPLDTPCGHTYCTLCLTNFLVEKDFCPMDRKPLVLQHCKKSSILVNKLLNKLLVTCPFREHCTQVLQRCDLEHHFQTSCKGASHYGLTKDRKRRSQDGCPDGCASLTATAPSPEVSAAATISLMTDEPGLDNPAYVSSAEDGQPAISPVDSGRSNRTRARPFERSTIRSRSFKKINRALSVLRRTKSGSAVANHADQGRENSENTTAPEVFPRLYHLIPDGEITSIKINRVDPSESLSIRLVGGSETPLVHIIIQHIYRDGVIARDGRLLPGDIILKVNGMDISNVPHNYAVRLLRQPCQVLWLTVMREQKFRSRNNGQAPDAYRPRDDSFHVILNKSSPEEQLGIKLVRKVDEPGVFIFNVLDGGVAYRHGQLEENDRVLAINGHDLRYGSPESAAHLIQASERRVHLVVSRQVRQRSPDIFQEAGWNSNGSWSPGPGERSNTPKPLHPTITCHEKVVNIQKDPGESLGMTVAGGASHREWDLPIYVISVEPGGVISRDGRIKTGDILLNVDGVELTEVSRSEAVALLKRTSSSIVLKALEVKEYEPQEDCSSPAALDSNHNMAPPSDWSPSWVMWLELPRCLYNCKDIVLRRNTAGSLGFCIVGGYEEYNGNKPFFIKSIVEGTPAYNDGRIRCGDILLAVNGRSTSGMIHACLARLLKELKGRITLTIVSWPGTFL

Row | effect of a mutation on the interaction | Variant
1 | disrupting interaction strength | MEFAELIKTPRVDNVVLHRPFYPAVEGTLCLTGHHLILSSRQDNTEELWLLHSNIDAIDKRFVGSLGTIIIKCKDFRIIQLDIPGMEECLNIASSIEALSTLDSITLMYPFFYRPMFEVIEDGWHCFLPEQEFELYSSATSEWRLSYVNKEFAVCPSYPPIVTVPKSIDDEALRKVATFRHGGRFPVLSYYHKKNGMVIMRSGQPLTGTNGRRCKEDEKLINATLRAGKRGYIIDTRSLNVAQQTRAKGGGFEQEAHYPQWRRIHKSIERYHILQESLIKLVEACNDQTHNMDRWLSKLEASNWLTHIKEILTTACLAAQCIDREGASILIHGTEGTDSTLQVTSLAQIILEPRSRTIRGFEALIEREWLQAGHPFQQRCAQSAYCNTKQKWEAPVFLLFLDCVWQILRQFPCSFEFNENFLIMLFEHAYASQFGTFLGNNESERCKLKLQQKTMSLWSWVNQPSELSKFTNPLFEANNLVIWPSVAPQSLPLWEGIFLRWNRSSKYLDEAYEEMVNIIEYNKELQAKVNILRRQLAELETEDGMQESP [S126C]

Variants of: B1
Details: with emil1_human EMILIN1, Q9Y6C2
emil1_human EMILIN1, Q9Y6C2, sequence (Q9Y6C2 whole entry): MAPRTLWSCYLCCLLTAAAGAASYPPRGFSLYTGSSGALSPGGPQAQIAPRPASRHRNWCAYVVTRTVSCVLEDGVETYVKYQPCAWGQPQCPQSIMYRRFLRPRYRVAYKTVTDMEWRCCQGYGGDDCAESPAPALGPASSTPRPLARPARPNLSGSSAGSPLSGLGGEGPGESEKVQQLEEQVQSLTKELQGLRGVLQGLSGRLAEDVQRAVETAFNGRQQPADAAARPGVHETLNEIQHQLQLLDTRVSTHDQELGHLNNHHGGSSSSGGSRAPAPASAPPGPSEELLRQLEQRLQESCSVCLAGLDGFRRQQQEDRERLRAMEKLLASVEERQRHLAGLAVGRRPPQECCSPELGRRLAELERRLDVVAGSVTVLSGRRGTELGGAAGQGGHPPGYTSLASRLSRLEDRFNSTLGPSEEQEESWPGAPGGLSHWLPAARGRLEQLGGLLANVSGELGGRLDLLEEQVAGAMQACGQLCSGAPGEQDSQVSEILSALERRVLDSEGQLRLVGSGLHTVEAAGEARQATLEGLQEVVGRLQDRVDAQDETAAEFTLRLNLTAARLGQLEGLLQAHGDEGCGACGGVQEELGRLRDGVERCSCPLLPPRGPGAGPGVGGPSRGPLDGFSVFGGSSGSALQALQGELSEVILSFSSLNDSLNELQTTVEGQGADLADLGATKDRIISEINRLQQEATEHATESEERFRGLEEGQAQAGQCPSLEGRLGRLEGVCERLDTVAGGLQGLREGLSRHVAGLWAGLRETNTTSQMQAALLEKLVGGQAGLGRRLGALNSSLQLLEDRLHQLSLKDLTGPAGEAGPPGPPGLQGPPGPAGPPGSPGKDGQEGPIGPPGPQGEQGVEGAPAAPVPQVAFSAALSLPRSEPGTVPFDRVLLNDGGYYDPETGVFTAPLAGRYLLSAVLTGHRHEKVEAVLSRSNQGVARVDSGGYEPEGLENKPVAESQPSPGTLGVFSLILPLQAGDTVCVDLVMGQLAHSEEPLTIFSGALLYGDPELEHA

Row | effect of a mutation on the interaction | Variant
2 | with no effect | MEFAELIKTPRVDNVVLHRPFYPAVEGTLCLTGHHLILSSRQDNTEELWLLHSNIDAIDKRFVGSLGTIIIKCKDFRIIQLDIPGMEECLNIASSIEALSTLDSITLMYPFFYRPMFEVIEDGWHCFLPEQEFELYSSATSEWRLSYVNKEFAVCPSYPPIVTVPKSIDDEALRKVATFRHGGRFPVLSYYHKKNGMVIMRSGQPLTGTNGRRCKEDEKLINATLRAGKRGYIIDTRSLNVAQQTRAKGGGFEQEAHYPQWRRIHKSIERYHILQESLIKLVEACNDQTHNMDRWLSKLEASNWLTHIKEILTTACLAAQCIDREGASILIHGTEGTDSTLQVTSLAQIILEPRSRTIRGFEALIEREWLQAGHPFQQRCAQSAYCNTKQKWEAPVFLLFLDCVWQILRQFPCSFEFNENFLIMLFEHAYASQFGTFLGNNESERCKLKLQQKTMSLWSWVNQPSELSKFTNPLFEANNLVIWPSVAPQSLPLWEGIFLRWNRSSKYLDEAYEEMVNIIEYNKELQAKVNILRRQLAELETEDGMQESP [S126C]

Variants of: B2
Details: with optn_human OPTN

Row | effect of a mutation on the interaction | Variant
3 | with no effect | MDEDGLPLMGSGIDLTKVPAIQQKRTVAFLNQFVVHTVQFLNRLSTVCEEKLADLSLRIQQIETTLNILDAKLSSIPGLDDVTVEVSPLNVTSVTNGAHPEATSEQPQQNSTQDSGLQESEVSAENILTVAKDPRYARYLKMVQVGVPVMAIRNKMISEGLDPDLLERPDAPVPDGESEKTVEESSDSESSFSD [F44L]

Variants of: B2
Details: with ift20_human IFT20, Q8IY31
ift20_human IFT20, Q8IY31, sequence (Q8IY31 whole entry): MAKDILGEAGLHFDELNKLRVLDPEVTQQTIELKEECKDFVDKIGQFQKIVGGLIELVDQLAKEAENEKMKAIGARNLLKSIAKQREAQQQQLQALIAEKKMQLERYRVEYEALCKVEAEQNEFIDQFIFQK

Row | effect of a mutation on the interaction | Variant
4 | with no effect | MDEDGLPLMGSGIDLTKVPAIQQKRTVAFLNQFVVHTVQFLNRLSTVCEEKLADLSLRIQQIETTLNILDAKLSSIPGLDDVTVEVSPLNVTSVTNGAHPEATSEQPQQNSTQDSGLQESEVSAENILTVAKDPRYARYLKMVQVGVPVMAIRNKMISEGLDPDLLERPDAPVPDGESEKTVEESSDSESSFSD [F44L]

Variants of: B2
Details: with abi2_human ABI2, Q9NYB9

Row | effect of a mutation on the interaction | Variant
5 | disrupting interaction strength | MDEDGLPLMGSGIDLTKVPAIQQKRTVAFLNQFVVHTVQFLNRLSTVCEEKLADLSLRIQQIETTLNILDAKLSSIPGLDDVTVEVSPLNVTSVTNGAHPEATSEQPQQNSTQDSGLQESEVSAENILTVAKDPRYARYLKMVQVGVPVMAIRNKMISEGLDPDLLERPDAPVPDGESEKTVEESSDSESSFSD [F44L]

Variants of: B2
Details: with ndc80_human NDC80, O14777
ndc80_human NDC80, O14777, sequence (O14777 whole entry): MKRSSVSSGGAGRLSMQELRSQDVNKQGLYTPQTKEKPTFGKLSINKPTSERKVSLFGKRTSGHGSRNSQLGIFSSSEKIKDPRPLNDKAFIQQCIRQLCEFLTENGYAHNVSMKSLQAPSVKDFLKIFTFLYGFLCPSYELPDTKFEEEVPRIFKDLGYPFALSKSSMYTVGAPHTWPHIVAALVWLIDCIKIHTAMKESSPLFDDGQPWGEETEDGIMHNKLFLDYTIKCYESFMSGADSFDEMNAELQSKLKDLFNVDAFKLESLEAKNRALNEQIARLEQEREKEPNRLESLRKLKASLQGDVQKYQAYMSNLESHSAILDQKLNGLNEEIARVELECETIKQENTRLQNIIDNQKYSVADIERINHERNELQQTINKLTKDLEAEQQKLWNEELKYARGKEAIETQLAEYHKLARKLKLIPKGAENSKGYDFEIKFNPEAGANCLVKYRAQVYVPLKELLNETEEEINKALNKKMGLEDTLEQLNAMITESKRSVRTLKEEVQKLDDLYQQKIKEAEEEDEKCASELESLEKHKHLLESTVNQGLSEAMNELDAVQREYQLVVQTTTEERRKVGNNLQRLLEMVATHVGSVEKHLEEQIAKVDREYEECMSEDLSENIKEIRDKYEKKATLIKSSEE

Row | effect of a mutation on the interaction | Variant
6 | with no effect | MDEDGLPLMGSGIDLTKVPAIQQKRTVAFLNQFVVHTVQFLNRLSTVCEEKLADLSLRIQQIETTLNILDAKLSSIPGLDDVTVEVSPLNVTSVTNGAHPEATSEQPQQNSTQDSGLQESEVSAENILTVAKDPRYARYLKMVQVGVPVMAIRNKMISEGLDPDLLERPDAPVPDGESEKTVEESSDSESSFSD [F44L]

Variants of: B2
Details: with pcm1_human PCM1, Q15154
pcm1_human PCM1, Q15154, sequence (Q15154 whole entry): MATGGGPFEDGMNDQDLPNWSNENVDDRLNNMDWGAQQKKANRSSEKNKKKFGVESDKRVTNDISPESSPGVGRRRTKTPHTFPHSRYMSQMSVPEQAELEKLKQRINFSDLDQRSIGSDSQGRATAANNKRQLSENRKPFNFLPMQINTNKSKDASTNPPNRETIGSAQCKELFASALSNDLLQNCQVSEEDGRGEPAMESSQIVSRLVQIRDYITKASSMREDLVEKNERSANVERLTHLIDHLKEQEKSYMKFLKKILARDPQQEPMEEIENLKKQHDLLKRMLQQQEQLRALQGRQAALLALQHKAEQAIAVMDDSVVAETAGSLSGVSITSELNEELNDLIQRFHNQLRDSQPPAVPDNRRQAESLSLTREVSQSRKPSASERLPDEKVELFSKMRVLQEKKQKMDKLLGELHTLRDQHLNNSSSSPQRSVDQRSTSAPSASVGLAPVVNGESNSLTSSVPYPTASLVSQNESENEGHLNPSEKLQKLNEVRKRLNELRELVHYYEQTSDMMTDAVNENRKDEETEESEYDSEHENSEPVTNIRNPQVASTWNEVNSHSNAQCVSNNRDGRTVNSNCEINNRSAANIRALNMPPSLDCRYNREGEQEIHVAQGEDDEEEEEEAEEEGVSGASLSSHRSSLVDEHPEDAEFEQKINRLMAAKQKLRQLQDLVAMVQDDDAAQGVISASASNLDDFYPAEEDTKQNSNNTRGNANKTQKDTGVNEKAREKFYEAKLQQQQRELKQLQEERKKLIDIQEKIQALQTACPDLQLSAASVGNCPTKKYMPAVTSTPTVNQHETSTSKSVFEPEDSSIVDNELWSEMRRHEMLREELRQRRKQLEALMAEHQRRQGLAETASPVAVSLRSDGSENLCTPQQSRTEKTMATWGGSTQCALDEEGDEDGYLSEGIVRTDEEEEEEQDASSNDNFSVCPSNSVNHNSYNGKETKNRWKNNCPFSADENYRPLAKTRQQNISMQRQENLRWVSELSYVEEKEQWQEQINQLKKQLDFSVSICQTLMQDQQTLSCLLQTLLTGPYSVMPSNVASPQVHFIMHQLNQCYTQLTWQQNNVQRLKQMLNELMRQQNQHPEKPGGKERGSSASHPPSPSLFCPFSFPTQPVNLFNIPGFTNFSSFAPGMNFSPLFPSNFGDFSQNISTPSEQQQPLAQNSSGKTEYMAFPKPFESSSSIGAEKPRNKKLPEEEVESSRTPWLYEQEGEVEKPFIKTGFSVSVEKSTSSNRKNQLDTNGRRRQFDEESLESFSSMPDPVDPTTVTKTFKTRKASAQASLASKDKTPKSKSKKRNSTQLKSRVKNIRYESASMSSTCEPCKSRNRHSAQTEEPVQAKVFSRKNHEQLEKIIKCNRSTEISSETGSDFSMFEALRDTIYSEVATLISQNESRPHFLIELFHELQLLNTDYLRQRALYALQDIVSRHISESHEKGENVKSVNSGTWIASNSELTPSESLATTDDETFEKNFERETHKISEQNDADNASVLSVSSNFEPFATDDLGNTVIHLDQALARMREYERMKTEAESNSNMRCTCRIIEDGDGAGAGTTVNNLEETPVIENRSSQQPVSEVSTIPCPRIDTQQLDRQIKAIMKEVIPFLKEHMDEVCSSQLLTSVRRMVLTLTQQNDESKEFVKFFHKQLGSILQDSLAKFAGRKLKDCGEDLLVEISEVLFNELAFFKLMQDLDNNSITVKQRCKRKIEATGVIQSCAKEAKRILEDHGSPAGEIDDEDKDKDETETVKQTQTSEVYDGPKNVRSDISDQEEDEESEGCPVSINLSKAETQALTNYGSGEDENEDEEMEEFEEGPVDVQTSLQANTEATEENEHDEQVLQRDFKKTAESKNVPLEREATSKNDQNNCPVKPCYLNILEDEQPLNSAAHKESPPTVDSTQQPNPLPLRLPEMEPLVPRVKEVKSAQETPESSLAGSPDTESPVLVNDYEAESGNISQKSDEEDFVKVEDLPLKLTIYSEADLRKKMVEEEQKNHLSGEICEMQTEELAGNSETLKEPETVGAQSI

Row | effect of a mutation on the interaction | Variant
7 | with no effect | MDEDGLPLMGSGIDLTKVPAIQQKRTVAFLNQFVVHTVQFLNRLSTVCEEKLADLSLRIQQIETTLNILDAKLSSIPGLDDVTVEVSPLNVTSVTNGAHPEATSEQPQQNSTQDSGLQESEVSAENILTVAKDPRYARYLKMVQVGVPVMAIRNKMISEGLDPDLLERPDAPVPDGESEKTVEESSDSESSFSD [F44L]

Variants of: B2
Details: with mcrs1_human MCRS1, Q96EZ8
mcrs1_human MCRS1, Q96EZ8, sequence (Q96EZ8 whole entry): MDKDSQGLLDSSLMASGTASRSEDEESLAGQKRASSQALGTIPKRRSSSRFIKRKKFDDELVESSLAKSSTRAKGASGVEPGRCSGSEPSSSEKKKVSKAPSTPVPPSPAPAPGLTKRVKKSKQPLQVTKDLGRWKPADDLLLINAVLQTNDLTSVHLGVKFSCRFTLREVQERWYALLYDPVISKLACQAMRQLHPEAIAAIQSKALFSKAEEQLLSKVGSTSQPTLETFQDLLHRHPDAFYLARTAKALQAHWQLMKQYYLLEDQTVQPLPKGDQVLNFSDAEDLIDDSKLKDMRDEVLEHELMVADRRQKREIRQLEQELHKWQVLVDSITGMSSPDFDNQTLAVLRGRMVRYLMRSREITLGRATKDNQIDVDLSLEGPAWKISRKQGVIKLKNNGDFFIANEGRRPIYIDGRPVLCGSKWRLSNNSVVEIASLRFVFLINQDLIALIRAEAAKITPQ

Row | effect of a mutation on the interaction | Variant
8 | with no effect | MDEDGLPLMGSGIDLTKVPAIQQKRTVAFLNQFVVHTVQFLNRLSTVCEEKLADLSLRIQQIETTLNILDAKLSSIPGLDDVTVEVSPLNVTSVTNGAHPEATSEQPQQNSTQDSGLQESEVSAENILTVAKDPRYARYLKMVQVGVPVMAIRNKMISEGLDPDLLERPDAPVPDGESEKTVEESSDSESSFSD [F44L]

Variants of: B2
Details: with txlna_human TXLNA

Row | effect of a mutation on the interaction | Variant
9 | with no effect | MDEDGLPLMGSGIDLTKVPAIQQKRTVAFLNQFVVHTVQFLNRLSTVCEEKLADLSLRIQQIETTLNILDAKLSSIPGLDDVTVEVSPLNVTSVTNGAHPEATSEQPQQNSTQDSGLQESEVSAENILTVAKDPRYARYLKMVQVGVPVMAIRNKMISEGLDPDLLERPDAPVPDGESEKTVEESSDSESSFSD [F44L]
